Target: human DR5 (human) (UniProt O14763)
Assay: ELISA, half-log dilutions on wells coated with 1 microgram/ml human DR5, anti-mouse polyclonal antibody-HRP

Sequence of human DR5 (human) (O14763 other isoform, or with tags, fused parts or gaps limits assumed): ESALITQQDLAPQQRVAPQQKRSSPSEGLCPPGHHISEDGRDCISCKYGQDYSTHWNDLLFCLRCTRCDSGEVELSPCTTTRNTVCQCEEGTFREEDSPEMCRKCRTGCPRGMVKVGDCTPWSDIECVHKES

EC50: 65.2 pM
Substance: MAB631 (antibody)

— patent US20150004162A1
